This data set concerns the target T1, PIF3-GST (Arabidopsis thaliana, UniProt O80536 1-524).
T1 sequence: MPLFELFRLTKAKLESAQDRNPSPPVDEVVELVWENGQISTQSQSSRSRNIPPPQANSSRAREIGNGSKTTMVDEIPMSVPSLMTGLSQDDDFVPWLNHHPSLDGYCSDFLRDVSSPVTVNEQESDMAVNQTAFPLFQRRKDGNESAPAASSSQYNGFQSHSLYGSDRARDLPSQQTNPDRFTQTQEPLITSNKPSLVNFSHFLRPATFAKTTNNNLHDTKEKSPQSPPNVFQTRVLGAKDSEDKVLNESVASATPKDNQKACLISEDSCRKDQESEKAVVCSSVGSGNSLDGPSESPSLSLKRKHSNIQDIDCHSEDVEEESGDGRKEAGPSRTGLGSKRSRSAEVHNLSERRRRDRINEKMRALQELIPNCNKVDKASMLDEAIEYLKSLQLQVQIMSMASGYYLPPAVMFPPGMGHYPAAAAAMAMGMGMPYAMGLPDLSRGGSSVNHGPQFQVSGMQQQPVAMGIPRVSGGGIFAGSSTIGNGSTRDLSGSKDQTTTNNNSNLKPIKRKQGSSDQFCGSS
In words: EMSA. A general note: In EMSA bound probe runs differently from free probe, usually more slowly.

We go through 2 molecules from publication doi:10.1101/2023.02.02.526371.

B1: PIEZO promoter probe 2 (dsDNA)
DNA 1: ATCCAAATGGACCACATGCCCATCAACCTCCAT
DNA 2: ATGGAGGTTGATGGGCATGTGGTCCATTTGGAT
As for B1, the binding result was “binds”.

B2: PIEZO promoter probe 1 (dsDNA)
DNA 1: CCTAGAACTAAACACATGAGCCTCCTTCTT
DNA 2: AAGAAGGAGGCTCATGTGTTTAGTTCTAGG
On to B2, for which the binding result is listed as “binds”.
